Patent publication US20110312883A1 (NTF THERAPEUTICS, published 2011)
Changes are numbered by the printed parent chain.

T1: recombinant human GFRα2-Fc chimera (R&D Systems) (human, UniProt O00451 22-441)
T1 construct: Bought reagent; also called GFRalpha2-Fc fusion protein; soluble recombinant GFRα2-Fc chimera; not shown: Fc portion of human IgG1
T1 sequence (looked up): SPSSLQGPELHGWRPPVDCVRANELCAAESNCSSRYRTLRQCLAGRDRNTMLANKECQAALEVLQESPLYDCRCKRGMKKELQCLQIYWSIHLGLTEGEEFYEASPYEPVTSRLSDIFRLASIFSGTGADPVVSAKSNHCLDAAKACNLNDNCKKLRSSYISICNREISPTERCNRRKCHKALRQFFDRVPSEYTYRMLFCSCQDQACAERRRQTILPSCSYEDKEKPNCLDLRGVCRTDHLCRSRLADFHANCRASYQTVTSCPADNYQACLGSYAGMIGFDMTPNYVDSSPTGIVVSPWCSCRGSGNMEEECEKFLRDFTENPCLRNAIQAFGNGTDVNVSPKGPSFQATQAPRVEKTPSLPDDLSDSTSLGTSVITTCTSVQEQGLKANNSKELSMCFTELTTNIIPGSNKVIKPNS

B1: NRTN WT (ligand)
mature neurturin monomer of the disulfide-linked homodimer: ARLGARPCGLRELEVRVSELGLGYASDETVLFRYCAGACEAAARVYDLGLRRLRQRRRLRRERVRAQPCCRPTAYEDEVSFLDAHSRYHTVHELSARECACV
notes: also called purified untagged mature wild type neurturin made by the same method as the variants
B2: neurturin variant N1 (untagged, purified) (ligand)
chain: B1 mature neurturin monomer of the disulfide-linked homodimer with R52A, R56A, R58A
notes: Dimeric protein; also called NRTN N1; neurturin mutant N1
B3: neurturin variant N2 (untagged, purified) (ligand)
chain: B1 mature neurturin monomer of the disulfide-linked homodimer with R54A, R61A, R63A
notes: Dimeric protein; also called NRTN N2; neurturin mutant N2
B4: neurturin variant N3 (untagged, purified) (ligand)
chain: B1 mature neurturin monomer of the disulfide-linked homodimer with R52A, R54A, R56A, R58A, R61A
notes: Dimeric protein; also called NRTN N3; neurturin mutant N3
B5: neurturin variant N4 (untagged, purified) (ligand)
chain: B1 mature neurturin monomer of the disulfide-linked homodimer with R51A, R54Q, Q55G, R56Q, R57G, R58A, R60V, R61G, E62S
notes: Dimeric protein; also called NRTN N4; neurturin mutant N4
B6: V5-tagged wild-type neurturin (ligand)
chain: ARGKPIPNPLLGLDSTSGARLGARPCGLRELEVRVSELGLGYASDETVLFRYCAGACEAAARVYDLGLRRLRQRRRLRRERVRAQPCCRPTAYEDEVSFLDAHSRYHTVHELSARECACV
notes: Secreted from transiently transfected CHO cells and used as crude conditioned medium; also called NRTN WT; E779
B7: V5-tagged neurturin variant NV1 (ligand)
chain: B6 chain with R70A, R74A, R76A
notes: Crude conditioned medium of transfected CHO cells; also called NRTN NV1; NV1 (from N1)
B8: V5-tagged neurturin variant NV2 (ligand)
chain: B6 chain with R72A, R79A, R81A
notes: Crude conditioned medium of transfected CHO cells; also called NRTN NV2; NV2 (from N2)
B9: V5-tagged neurturin variant NV3 (ligand)
chain: B6 chain with R70A, R72A, R74A, R76A, R79A
notes: Crude conditioned medium of transfected CHO cells; also called NRTN NV3; NV3 (from N3)
B10: V5-tagged neurturin variant NV4 (ligand)
chain: B6 chain with R69A, R72Q, Q73G, R74Q, R75G, R76A, R78V, R79G, E80S
notes: Crude conditioned medium of transfected CHO cells; also called NRTN NV4; NV4 (from N4)

Legend:
[1] = biological target: T1, recombinant human GFRα2-Fc chimera (R&D …); assay: capture on GFRα2-Fc held on Protein G spin column (after heparin column enrichment), 1.0 M NaCl wash, elution with 2.0 M MgCl2; eluate on non-reducing 15% SDS-PAGE, Coomassie stain
Method: Media from NRTN-expressing CHO cells (QMCF Technology at Icosagen Ltd) was thawed at room temperature. HITRAP™ Heparin HP columns (1 ml, GE Healthcare) were equilibrated with 10 ml of 10 mM Hepes, pH 7.2 and 1-10 ml of undiluted media was applied with a syringe according to the manufacturer's instructions. The media was collected and run through the column a second time. The columns were washed with 10 ml of 0.2 M NaCl in 10 mM Hepes, pH 7.2. The NRTN enriched samples were eluted with 5×600 μl of 10 mM Hepes pH 7.2, 1.2 M NaCl. Fractions number two and three were collected and concentrated to a final volume of 50-65 μl, according to the manufacturer's instruction in AmiconUltra 0.5 ml 10K concentrators (Millipore). The samples were then diluted 1:10 with 10 mM Hepes pH 7.2 to a final concentration of NaCl around 120 mM. Soluble recombinant GFRα2-Fc chimera (10-200 μg, R&D Systems) was attached to Protein G HP SpinTrap columns (GE Healthcare) in PBS according to the manufacturer's instructions. The 1:10 diluted samples were added to the GFRα2 columns and incubated for at least one hour at +4° C. with mixing. The columns were first washed with 4×400 μl of cold 10 mM Hepes pH 7.2, 1.0 M NaCl and thereafter with 4×400 μl of cold 10 mM Hepes pH 7.2, 0.1 M NaCl. The NRTN samples were eluted with 5×200 μl of pre-warmed (25° C.) 10 mM Hepes pH 7.2, 2.0 M MgCl₂. The eluted fractions were immediately diluted (1:2) with 10 mM Hepes pH 7.2, 0.150 M NaCl and concentrated with AMICONULTRA™ 0.5 ml 10K concentrators. The samples were further diluted in the same buffer (1:2) and subsequently concentrated three times to yield a final concentration of around 125 mM MgCl₂, and 150 mM NaCl in 10 mM Hepes pH 7.2. Samples of the purified proteins as well as a commercially available batch of neurturin were analyzed using […], under non reducing conditions, and visualized via Coomassie staining.

[2] = biological target: T1, recombinant human GFRα2-Fc chimera (R&D …); assay: precipitation from CHO medium with GFRα2-Fc and Protein G-Sepharose, western blot
Method: An aliquot of each media (400 μl) was incubated with recombinant human GFRα2-Fc chimera (0.4 μg, R&D Systems), antibodies to the V5-epitope (0.4 μg, Invitrogen) or antibodies to NRTN (0.4 μg, R&D Systems) for 1 h at +4° C. with mixing. Protein G has a strong affinity for antibodies from mouse and goat as well as for the Fc portion of human IgG₁ in the recombinant GFRα2-Fc chimera. Therefore Protein G-Sepharose was added to the samples and the incubation was continued for 1 h at +4° C. with mixing. After pelleting, the samples were eluted from the protein G-Sepharose with reducing Laemmli buffer and loaded on SDS-PAGE. For Western blot analysis of the V5-tagged variants of NRTN, an anti-V5 antibody (Invitrogen) was used with samples loaded on SDS-PAGE under reducing conditions. For Western blot analysis of the untagged variants of NRTN, an anti-NRTN antibody (R&D Systems) was used with samples loaded on SDS-page under non-reducing conditions.

| Binder | binding result [1] | binding result [2] |
| --- | --- | --- |
| B1 | binds | – |
| B2 | binds | – |
| B3 | binds | – |
| B4 | binds | – |
| B5 | binds | – |
| B6 | – | binds |
| B7 | – | binds |
| B8 | – | binds |
| B9 | – | binds |
| B10 | – | binds |
